Numbering of substitutions follows the chain as printed.
B1: 2C6 PR3 (designed binder)
chain: VSDVPRDLEVVAATPTSLLISWRHPHFPTRYYRITYGETGGNSPVQEFTVPLQPPTATISGLKPGVDYTITGYAVTVEPNGHKLAIPISINYRT
notes: tag left out
B2: 2′C7-PR4 (designed binder)
chain: B1 chain with V77W, E78D, P79Q, K83V, A85L, I86T
notes: tag left out
B3: 2H10 PR3 (designed binder)
chain: B1 chain with V77L, E78A, N80S, G81A, H82R, K83E, A85M, I86T
notes: tag left out
B4: 2C9 PR3 (designed binder)
chain: B1 chain with V77E, E78A, H82R, K83E, A85R, I86T
notes: tag left out
B5: 2′B9-PR4 (designed binder)
chain: B1 chain with E78G, N80T, G81D, K83E, A85L, I86T
notes: tag left out
B6: 2′D5-PR4 (designed binder)
chain: B1 chain with E78A, P79W, G81D, K83M, A85M, I86T
notes: tag left out
B7: 2′A11-PR4 (designed binder)
chain: B1 chain with V77E, E78D, P79I, N80R, G81V, H82L, K83W, A85N, I86T, P87T
notes: tag left out
B8: 2D12 PR3 (designed binder)
chain: B1 chain with V77E, E78G, P79W, N80I, G81D, K83E, L84I, A85M
notes: tag left out
B9: 2F3 PR3 (designed binder)
chain: B1 chain with V77L, E78S, P79H, N80Y, H82K, K83E, A85R, I86T
notes: tag left out
B10: 2′B4-PR4 (designed binder)
chain: B1 chain with V77S, E78G, P79H, K83E, L84V, A85M, I86T
notes: tag left out
B11: 2G9 PR3 (designed binder)
chain: B1 chain with V77E, E78I, P79Y, G81D, K83E, A85M, I86T
notes: tag left out
B12: 2G12 PR3 (designed binder)
chain: B1 chain with V77S, E78G, P79Q, G81D, K83A, A85L
notes: tag left out
B13: 2F10 PR3 (designed binder)
chain: B1 chain with V77L, E78A, P79L, N80F, G81D, K83E, A85L, I86T
notes: tag left out
B14: 2C12 PR3 (designed binder)
chain: B1 chain with V77D, E78A, P79Q, G81V, H82Q, K83A, L84P, A85I, I86A, P87Q
notes: tag left out
B15: 2H12 PR3 (designed binder)
chain: B1 chain with V77E, E78G, P79Y, N80Q, G81N, K83E, A85S, I86V
notes: tag left out
B16: 2′A1-PR4 (designed binder)
chain: B1 chain with V77S, E78G, P79H, G81D, K83M, A85M
notes: tag left out
B17: E23 (designed binder)
chain: EVVAATPTSLLISWRHHPHFPTRYYRITYGETGGNSPVQEFTVPLQPPTATISGLKPGVDYTITGYAVTVHWNGRELMTPISINYRT
notes: 10Fn3 clone, Del 1-8
B18: E27 (designed binder)
chain: EVVAATPTSLLISWRHPHFPTRYYRITYGETGGNSPVQEFTVPLQPPTATISGLKPGVDYTITGYAVTVERNGHTLMTPISINYRT
notes: 10Fn3 clone, Del 1-8
B19: F8 (designed binder)
chain: B18 chain with R71H, H74R, L76S, M77F
notes: 10Fn3 clone, Del 1-8
B20: G4 (designed binder)
chain: B18 chain with V69I, R71K, H74R, T75H, M77N, T78I
notes: 10Fn3 clone, Del 1-8
B21: F1 (designed binder)
chain: B18 chain with V69S, E70G, G73D, H74R, T75E, M77L, T78V
notes: 10Fn3 clone, Del 1-8
B22: EGE9 (designed binder)
chain: B18 chain with V69F, E70G, R71P, G73D, H74R, T75E, M77L
notes: 10Fn3 clone, Del 1-8
B23: G3 (designed binder)
chain: B18 chain with V69M, N72S, H74R, T75E
notes: 10Fn3 clone, Del 1-8
B24: F4 (designed binder)
chain: B18 chain with N72D, H74R, M77R
notes: 10Fn3 clone, Del 1-8
B25: G2 (designed binder)
chain: B18 chain with V69L, G73N, H74R, T75E, M77L
notes: 10Fn3 clone, Del 1-8
B26: EGE5 (designed binder)
chain: B18 chain with V69L, H74R, T75V, M77N
notes: 10Fn3 clone, Del 1-8
B27: F6 (designed binder)
chain: B18 chain with R71Q, H74R, T75V
notes: 10Fn3 clone, Del 1-8
B28: EGE2 (designed binder)
chain: B18 chain with H74R, T75Q
notes: 10Fn3 clone, Del 1-8
B29: F10 (designed binder)
chain: B18 chain with V69M, E70A, R71P, H74R, T75E, M77L
notes: 10Fn3 clone, Del 1-8
B30: EGE11 (SEQ ID NO 72) (designed binder)
chain: B18 chain with V69F, E70G, R71W, G73D, H74R, T75E, M77L, T78I
B31: F7 (designed binder)
chain: B18 chain with R71H, H74R, T75V, M77N, T78I
notes: 10Fn3 clone, Del 1-8
B32: EGE4 (designed binder)
chain: B18 chain with H74R, T75V, M77N
notes: 10Fn3 clone, Del 1-8
B33: EGE3 (designed binder)
chain: B18 chain with H74R, T75Q, M77Y
notes: 10Fn3 clone, Del 1-8
B34: FE (designed binder)
chain: B18 chain with N72D, H74R, T75E, M77N, T78I
B35: F3 (designed binder)
chain: B18 chain with N72D, H74R, T75K, M77Y
notes: 10Fn3 clone, Del 1-8
B36: EGE6 (designed binder)
chain: B18 chain with V69L, H74R, T75L, M77N
notes: 10Fn3 clone, Del 1-8
B37: EGE10 (designed binder)
chain: B18 chain with V69M, E70G, R71P, G73D, H74R, T75E, M77L
notes: 10Fn3 clone, Del 1-8
B38: F9 (designed binder)
chain: B18 chain with R71P, H74R, T75V, M77N
notes: 10Fn3 clone, Del 1-8
B39: EGE1 (designed binder)
chain: B18 chain with V69L, H74R, T75K
notes: 10Fn3 clone, Del 1-8
B40: EGE7 (designed binder)
chain: B18 chain with V69L, G73D, H74R, T75V, M77L
notes: 10Fn3 clone, Del 1-8
B41: EGE8 (designed binder)
chain: B18 chain with G73E, H74R, T75V
notes: 10Fn3 clone, Del 1-8
B42: EGE11 (SEQ ID NO 87) (designed binder)
chain: B18 chain with V69M, E70G, R71K, G73D, H74R, T75E, M77L
B43: F11 (designed binder)
chain: B18 chain with R71Q, H74R, T75V, M77N
notes: 10Fn3 clone, Del 1-8

Target: T1, human vascular endothelial growth factor receptor-2 Fc chimera (KDR-Fc) (human, UniProt P35968 20-764)
T1 construct: range 1-764; purchased from R&D Systems; also called hKDR; human VEGF-R2-Fc; not shown: human IgG1 Fc
Assay: radioactive equilibrium binding, 1 nM KDR-Fc
In short: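 Read-out: eluted ³⁵S as % of input radioactivity, minus bead-only binding without KDR-Fc (under 1-2% of input); one-site non-linear fit. Tracer binder 0.2 or 0.5 nM, receptor-Fc 0–200 nM, 1 h at 30° C in buffer B.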
T1 sequence (P35968 20-764 limits assumed, change not shown, form in doubt): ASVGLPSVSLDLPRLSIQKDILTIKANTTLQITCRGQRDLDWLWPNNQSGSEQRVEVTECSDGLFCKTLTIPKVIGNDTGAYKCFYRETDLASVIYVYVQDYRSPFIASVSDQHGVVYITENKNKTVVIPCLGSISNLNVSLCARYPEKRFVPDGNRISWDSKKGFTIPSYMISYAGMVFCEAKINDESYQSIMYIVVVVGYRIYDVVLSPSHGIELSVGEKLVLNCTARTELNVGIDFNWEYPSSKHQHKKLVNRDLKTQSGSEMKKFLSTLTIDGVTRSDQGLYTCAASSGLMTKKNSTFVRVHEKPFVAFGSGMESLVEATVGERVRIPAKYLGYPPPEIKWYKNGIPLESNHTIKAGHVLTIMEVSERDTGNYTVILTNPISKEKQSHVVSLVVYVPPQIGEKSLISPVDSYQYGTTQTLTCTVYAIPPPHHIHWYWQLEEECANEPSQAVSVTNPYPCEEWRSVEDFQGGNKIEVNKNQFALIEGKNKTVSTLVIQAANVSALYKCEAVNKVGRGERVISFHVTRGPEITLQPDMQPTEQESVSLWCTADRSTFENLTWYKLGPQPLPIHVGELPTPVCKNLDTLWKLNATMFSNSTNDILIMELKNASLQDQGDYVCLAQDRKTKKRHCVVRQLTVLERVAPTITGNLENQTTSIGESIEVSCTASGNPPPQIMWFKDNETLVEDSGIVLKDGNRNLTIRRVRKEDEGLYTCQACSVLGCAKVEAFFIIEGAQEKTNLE

Binding to 1 nM KDR, % [%] | Binder
5 | B1
5 | B2
10 | B3
7 | B4
7 | B5
11 | B6
6 | B7
14 | B8
8 | B9
4 | B10
9 | B11
6 | B12
3 | B13
6 | B14
10 | B15
11 | B16

Target: T2, human vascular endothelial growth factor receptor-2 Fc chimera (KDR-Fc) (human, UniProt P35968 20-764)
T2 construct: range 1-764; also called human VEGFR-2; not shown: human IgG1 Fc
Assay: radioactive equilibrium binding assay, 1 nM KDR-Fc, % of input bound
Description: (§1) To prepare ³⁵S-labeled binding proteins for analysis, mRNA was prepared as described above for RNA-protein fusion production but the linker ligation step was omitted. The mRNA was expressed using rabbit reticulocyte lysate translation kit (Ambion) in the presence of ³⁵S-labeled Met at 30° C. for 1 hour. Expressed protein was purified on M2-agarose Flag beads (Sigma) as described above. This procedure produced the encoded protein without the nucleic acid tail. In a direct binding assay, VEGF-R2-Fc fusions in concentrations ranging from 0 to 200 nM were added to a constant concentration of the purified protein (0.2 or 0.5 nM) and incubated at 30° C. for 1 hour in buffer B. The receptor-binder complexes were captured using Protein A magnetic beads for another 10 minutes at room temperature using a Kingfisher™ The beads were washed with six reaction volumes of buffer B. The protein was eluted from the beads with 100 μL of 0.1 M KOH. […] of the reaction mixture and elution were dried onto a LumaPlate-96 (Packard) and the amount of ³⁵S on the plate was measured using a TopCount NXT instrument (Packard). The amount of fibronectin-based scaffold protein bound to the target was estimated as a percent of radioactivity eluted from Protein A magnetic beads compare to radioactivity in the reaction mixture. Nonspecific binding of fibronectin-based scaffold proteins to the beads was determined by measuring binding in the absence of KDR-Fc and represented less than 1-2% of the input. Specific binding was obtained through subtraction of nonspecific binding from total binding. Data was analyzed using the GraphPad Prizm software (GraphPad Software, Inc, San Diego, Calif.), fitted using a one site, non-linear binding equation.
T2 sequence (P35968 20-764 limits assumed, change not shown, form in doubt): as above

Binding to 1 nM KDR, % [%] | Binder
36 | B17
37 | B18
33 | B19
21 | B20
18 | B21
32 | B22
28 | B23
31 | B24
25 | B25
32 | B26
37 | B27
42 | B28
29 | B29
50 | B30
30 | B31
26 | B32
34 | B33
12 | B34
27 | B35
33 | B36
37 | B37
32 | B38
30 | B39
31 | B40
26 | B41
32 | B42
20 | B43

Target: T3, mouse vascular endothelial growth factor receptor-2 Fc chimera (Flk-1-Fc) (mouse, UniProt P35918 20-762)
T3 construct: Bought from R&D Systems; also called mouse VEGFR-2; not shown: Fc part of the purchased chimera, not specified
Assay: radioactive equilibrium binding assay, 1 nM Flk-1-Fc, % of input bound
Description: as §1

T3 sequence (P35918 20-762, change not shown): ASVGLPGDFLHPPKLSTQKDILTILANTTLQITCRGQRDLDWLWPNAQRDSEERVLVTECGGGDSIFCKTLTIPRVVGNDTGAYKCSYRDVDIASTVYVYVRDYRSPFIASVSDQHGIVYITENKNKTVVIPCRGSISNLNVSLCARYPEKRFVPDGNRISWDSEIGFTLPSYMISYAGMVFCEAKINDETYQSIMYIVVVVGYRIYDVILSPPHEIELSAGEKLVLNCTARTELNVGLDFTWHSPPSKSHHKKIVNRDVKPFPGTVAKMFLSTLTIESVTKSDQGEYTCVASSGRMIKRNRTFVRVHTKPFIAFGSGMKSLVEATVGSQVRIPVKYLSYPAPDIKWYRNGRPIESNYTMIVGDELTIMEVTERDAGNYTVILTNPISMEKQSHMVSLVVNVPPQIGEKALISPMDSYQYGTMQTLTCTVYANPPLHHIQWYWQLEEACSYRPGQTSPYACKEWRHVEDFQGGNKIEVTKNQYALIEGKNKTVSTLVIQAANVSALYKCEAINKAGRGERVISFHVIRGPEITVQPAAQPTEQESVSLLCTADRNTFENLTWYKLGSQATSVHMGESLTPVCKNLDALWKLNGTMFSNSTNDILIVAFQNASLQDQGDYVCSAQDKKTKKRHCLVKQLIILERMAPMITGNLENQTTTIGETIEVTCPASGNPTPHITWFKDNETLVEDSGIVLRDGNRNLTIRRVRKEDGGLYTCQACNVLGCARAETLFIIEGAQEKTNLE

Binding to 1 nM Flk-1, % [%] | Binder
7 | B17
9 | B18
13 | B19
12 | B20
2 | B21
1 | B22
10 | B23
18 | B24
9 | B25
47 | B26
2 | B27
33 | B28
1 | B29
0 | B30
7 | B31
41 | B32
38 | B33
8 | B34
15 | B35
40 | B36
1 | B37
23 | B38
29 | B39
30 | B40
20 | B41
1 | B42
8 | B43
